The source of these data is patent US20220305136A1 (ASCENDIS PHARMA ONCOLOGY DIVISION A S, published 2022).

This test concerns the target T1, human CTLA-4 (AA Ala37-Ser160)-Fc Tag fusion protein (human, UniProt P16410 37-160).
T1 construct: range 37-160; Bought reagent, coated on ELISA wells as the capture protein; also called AcroBiosystem catalog no; CT4-H5255; not shown: Fc Tag of the bought fusion protein
T1 sequence (looked up): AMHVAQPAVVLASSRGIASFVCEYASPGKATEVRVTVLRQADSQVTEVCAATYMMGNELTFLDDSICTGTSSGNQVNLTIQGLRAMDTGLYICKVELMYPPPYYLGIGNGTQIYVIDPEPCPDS
As to the kind of experiment: in-house sandwich ELISA; CTLA-4-Fc coated on plate captures HHC^MET from rat plasma; read-out with rabbit anti-camelid VHH antibody-HRP. The source says: These solutions were used for the generation of a calibration curve.

B1: HHC^MET (VHH)
chain: EVQLVESGGGLVQAGGSLRLSCAASGGTFSFYGMGWFRQAPGKEQEFVADIRTSAGRTYYADSVKGRFTISRDNAKNTVYLQMNSLKPEDTAVYYCAAEMSGISGWDYWGQGTQVTVSSGGGGSGGGSEVQLVESGGGLVQAGGSLRLSCAASGGTFSFYGMGWFRQAPGKEQEFVADIRTSAGRTYYADSVKGRFTISRDNAKNTVYLQMNSLKPEDTAVYYCAAEMSGISGWDYWGQGTQVTVSS
notes: Custom made, expressed in E. coli; The assay measured free HHC^MET in rat plasma, either spiked in as standard or released from the hydrogel prodrug; also called HHC^MET-NH2
For B1, the binding result is reported as “binds”.
